The values that follow come from publication PMC3961180, “The Kil Peptide of Bacteriophage λ Blocks Escherichia coli Cytokinesis via ZipA-Dependent Inhibition of FtsZ Assembly” (PLoS Genetics, 2014).

This data set deals with the molecule itself. As to the kind of experiment: co-sedimentation; FtsZ 5 µM, His6-FLAG-Kil 10 µM, His6-tagged ZipAC domains 5 µM, GTP 1 mM in polymerization buffer; 1 mM CaCl2 for calcium-induced bundling; TLA 100.3 rotor at 70,000 rpm; supernatant and pellet on Coomassie-stained gels.

B1: E. coli FtsZ (natural protein, UniProt P0A9A6 1-383, looked up)
chain: MFEPMELTNDAVIKVIGVGGGGGNAVEHMVRERIEGVEFFAVNTDAQALRKTAVGQTIQIGSGITKGLGAGANPEVGRNAADEDRDALRAALEGADMVFIAAGMGGGTGTGAAPVVAEVAKDLGILTVAVVTKPFNFEGKKRMAFAEQGITELSKHVDSLITIPNDKLLKVLGRGISLLDAFGAANDVLKGAVQGIAELITRPGLMNVDFADVRTVMSEMGYAMMGSGVASGEDRAEEAAEMAISSPLLEDIDLSGARGVLVNITAGFDLRLDEFETVGNTIRAFASDNATVVIGTSLDPDMNDELRVTVVATGIGMDKRPEITLVTNKQVQQPVMDRYQQHGMAPLTQEQKPVAKVVNDNAPQTAKEPDYLDIPAFLRKQAD
notes: cell division protein FtsZ, E. coli; expressed from pET11a-ftsZ (from H. Erickson); No tag is named for this construct; also called FtsZWT; source: E. coli BL21(DE3) pET11a-ftsZ (WM971), purified (successive 20% and 30% ammonium sulfate cuts)
In the case of B1, the binding result is “binds”.
